Data taken from article PMC5399559 (2017).

What was measured:
[1] = target: taxol-stabilized microtubules (MTs); assay: 30 mM KCl
[2] = target: taxol-stabilized microtubules (MTs); assay: 100 mM KCl
[3] = target: taxol-stabilized microtubules (MTs); assay: 200 mM KCl

Sequence of taxol-stabilized microtubules (MTs) (chain, as listed by the source, chain 1 of 2): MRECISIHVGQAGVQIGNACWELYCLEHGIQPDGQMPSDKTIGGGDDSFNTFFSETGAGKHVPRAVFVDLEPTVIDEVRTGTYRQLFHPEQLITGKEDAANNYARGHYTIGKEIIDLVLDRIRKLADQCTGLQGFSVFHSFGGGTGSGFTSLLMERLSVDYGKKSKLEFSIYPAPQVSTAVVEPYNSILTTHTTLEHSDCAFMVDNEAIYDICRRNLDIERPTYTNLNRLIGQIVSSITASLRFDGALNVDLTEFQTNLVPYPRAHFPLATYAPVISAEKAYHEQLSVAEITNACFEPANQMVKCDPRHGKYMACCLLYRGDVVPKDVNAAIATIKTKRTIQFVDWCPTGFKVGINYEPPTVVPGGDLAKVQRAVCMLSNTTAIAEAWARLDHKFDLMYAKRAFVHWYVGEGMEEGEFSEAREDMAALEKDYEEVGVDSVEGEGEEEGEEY
Sequence of taxol-stabilized microtubules (MTs) (chain, as listed by the source, chain 2 of 2): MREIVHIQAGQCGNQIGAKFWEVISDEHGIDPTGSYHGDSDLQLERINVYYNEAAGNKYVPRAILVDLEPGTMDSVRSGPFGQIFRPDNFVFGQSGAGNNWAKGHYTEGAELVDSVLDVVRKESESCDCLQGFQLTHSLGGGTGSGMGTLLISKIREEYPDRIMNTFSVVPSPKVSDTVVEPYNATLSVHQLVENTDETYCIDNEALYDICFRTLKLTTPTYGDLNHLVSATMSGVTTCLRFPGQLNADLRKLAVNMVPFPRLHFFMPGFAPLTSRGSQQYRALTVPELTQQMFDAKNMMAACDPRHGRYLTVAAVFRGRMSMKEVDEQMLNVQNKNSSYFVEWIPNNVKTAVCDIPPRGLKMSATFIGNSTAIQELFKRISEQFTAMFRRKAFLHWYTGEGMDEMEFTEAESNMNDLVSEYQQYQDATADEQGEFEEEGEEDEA

- Kd [1]: 340 nM
- Kd [2]: 770 nM
- Kd [3]: 3010 nM
B1: MBP-Kif18A^tail-His6 (tail of Xl_Kif18A, aa 846-953) (domain or fragment)
chain: PSYMAMTSAAERKRKLLSLAGNSAVKEDSVPLPTAKRVRQDIALDCKALRVQRVAAGTTRSKDNCARRRLPKSVSEGALGVKTKPFSFQGSAQLLFQGGKKKAALKDP
